# Data: patent US20240376214A1, “ANTI-C-MET ANTIBODIES AND ANTIBODY-DRUG CONJUGATES” (BYONDIS B.V., priority 2021, published 2024)
# Residue numbers refer to the chain shown, from its start.
# B1: mAb1a (antibody, human IgG1, kappa, V domains shown)
# VH: QVQLVQSGAEVKKPGASVKVSCKASGYIFTDYFMNWVRQACGQGLEWMGRVNPKNGDITYNQKFRGRVSLTKDTSINTAYMELSGLTSDDTAIYYCAYDGYYDGMDFWGQGTSVTVSS
# VL: ELVMTQSPSSLSASVGDRVTITCRANSSVSSNFLHWYQQKPGKAPKLLISSTSNLAFGVPSRFSGTGSGTDFSLTISSLQPEDFAIYYCHQYSGHPFTFGQGTKLEIKR
# notes: Humanized IgG1 kappa, HC-41C, from wt/41C-chi-mAb1; also called humanized HC-41C antibody mAb1a; mAbla
# B2: mAb3c (antibody, human IgG1, kappa, V domains shown)
# VH: QVQLVQSGAEVKKPGASVKVSCKASGYTFTDYYLNWVRQACGQGLEWMGLIFPGNDKTEYSEKFKGRVTLTTDTSISTAYMELSSLTSDDTALYYCSGGDYGGFVYWGQGTLVTVSS
# VL: DIQMTQSPSSLSASVGDRVTITCGASENIYGALNWYQQKPGKAPKLLIYGATNLADGVPSRFSGSGSGTDFTLTISSLQPEDVATYYCQNVLSSPLTFGSGTKLEIKR
# notes: Humanized IgG1 kappa, HC-41C, from wt/41C-chi-mAb3; also called humanized HC-41C antibody mAb3c
# B3: mAb3d (antibody, human IgG1, kappa, V domains shown)
# VH: B2 VH with V5Q, Q6E, L70M, T72R, I76T, A79V, T87R, D89E, L93V
# VL: B2 VL with M4L, V83F, S100P, L104V, E105D
# notes: Humanized IgG1 kappa, HC-41C, from wt/41C-chi-mAb3; also called humanized HC-41C antibody mAb3d
# B4: mAb3e (antibody, human IgG1, kappa, V domains shown)
# VH: B2 VH with V5Q, Q6E, L70M, T72R, I76T, A79V, T87R, D89E, L93V
# VL: B2 VL
# notes: Humanized IgG1 kappa, HC-41C, from wt/41C-chi-mAb3; also called humanized HC-41C antibody mAb3e
# B5: mAb3a (antibody, human IgG1, kappa, V domains shown)
# VH: B2 VH
# VL: B2 VL with M4L, V83F, S100P, L104V, E105D
# notes: Humanized IgG1 kappa, HC-41C, from wt/41C-chi-mAb3; also called humanized HC-41C antibody mAb3a
# B6: mAb2c (antibody, human IgG1, kappa, V domains shown)
# VH: QVQLVQSGAEVKKPGSSVKVSCKASGYVFPDYEMHWVRQACGQGLEWMGAFDPETGDTTYNQNFKGRVTITADKSTSTAYMELSSLRSEDTAVYYCARDYKYLYYYAMDNWGQGTTVTVSS
# VL: EIVLTQSPSLLSASIGDRVTIPCTASSSITSSYLHWYQQKPGKAPKLLIYSTTNLASGVPSRFSGSGSGTEFTLTISSLQPEDFATYYCHQYRRSPLTFGGGTKLEIKR
# notes: Humanized IgG1 kappa, HC-41C, from wt/41C-chi-mAb2; also called humanized HC-41C antibody mAb2c
# B7: mAb2a (antibody, human IgG1, kappa, V domains shown)
# VH: B6 VH with V11L, K12R, K23R, T71A, S84R, V93I, T116M
# VL: B6 VL
# notes: Humanized IgG1 kappa, HC-41C, from wt/41C-chi-mAb2; also called humanized HC-41C antibody mAb2a
# B8: mAb2b (antibody, human IgG1, kappa, V domains shown)
# VH: B6 VH
# VL: B6 VL with E1D, V3Q, L4M, L10S, I15V, P22T, E71D
# notes: Humanized IgG1 kappa, HC-41C, from wt/41C-chi-mAb2; also called humanized HC-41C antibody mAb2b
# B9: wt-chi-mAb1 (antibody, human IgG1, kappa, V domains shown)
# VH: EVQLQQSGPELLKPGASVKMSCKASGYIFTDYFMNWVKQSHGKSLEWIGRVNPKNGDITYNQKFRGKATLTVDKSLTTAYMQLNSLTSEDSAVYFCAYDGYYDGMDFWGQGTSVTVSS
# VL: ENVLTQSPAIMSASPGEKVTMTCRANSSVSSNFLHWYQQKSGASPKLWISSTSNLAFGVPPRFSGSGSGTSYSLTISSVEAEDAATYYCHQYSGHPFTFGSGTKLEIKR
# notes: Mouse/human chimeric IgG1 kappa; also called wild-type chimeric antibody mAb1
# B10: 41C-chi-mAb1 (antibody, human IgG1, kappa, V domains shown)
# VH: B9 VH with H41C
# VL: B9 VL
# notes: Chimeric IgG1 kappa with an engineered cysteine at HC position 41 (Kabat); also called HC-41C chimeric antibody mAb1
# B11: wt-chi-mAb2 (antibody, human IgG1, kappa, V domains shown)
# VH: QVQLQQSGAELVRPGASVKLSCKASGYVFPDYEMHWVKQTPVHGLEWIGAFDPETGDTTYNQNFKGKATLTADKASSTAYMDLRSLTSGDSAVYYCARDYKYLYYYAMDNWGQGTSVTVSS
# VL: QIVLTQSPAIMSASLGERVTMTCTASSSITSSYLHWYQQKPGSSPKLWIYSTTNLASGVPGRFSGSGSGTSFSLTISSMEAEDAATYYCHQYRRSPLTFGAGTKLELKR
# notes: Mouse/human chimeric IgG1 kappa; also called wild-type chimeric antibody mAb2
# B12: 41C-chi-mAb2 (antibody, human IgG1, kappa, V domains shown)
# VH: B11 VH with P41C
# VL: B11 VL
# notes: Chimeric IgG1 kappa with an engineered cysteine at HC position 41 (Kabat); also called HC-41C chimeric antibody mAb2
# Target: T1, human c-Met (HGFR), full length, on the cell surface (human, UniProt P08581 25-1390)
# T1 construct: Endogenous c-Met on human tumor cell lines MKN45, NCI-H596, PC-3 and HepG2; also called hepatocyte growth factor receptor; mesenchymal-epithelial transition factor
# T1 sequence (P08581 25-1390 limits assumed): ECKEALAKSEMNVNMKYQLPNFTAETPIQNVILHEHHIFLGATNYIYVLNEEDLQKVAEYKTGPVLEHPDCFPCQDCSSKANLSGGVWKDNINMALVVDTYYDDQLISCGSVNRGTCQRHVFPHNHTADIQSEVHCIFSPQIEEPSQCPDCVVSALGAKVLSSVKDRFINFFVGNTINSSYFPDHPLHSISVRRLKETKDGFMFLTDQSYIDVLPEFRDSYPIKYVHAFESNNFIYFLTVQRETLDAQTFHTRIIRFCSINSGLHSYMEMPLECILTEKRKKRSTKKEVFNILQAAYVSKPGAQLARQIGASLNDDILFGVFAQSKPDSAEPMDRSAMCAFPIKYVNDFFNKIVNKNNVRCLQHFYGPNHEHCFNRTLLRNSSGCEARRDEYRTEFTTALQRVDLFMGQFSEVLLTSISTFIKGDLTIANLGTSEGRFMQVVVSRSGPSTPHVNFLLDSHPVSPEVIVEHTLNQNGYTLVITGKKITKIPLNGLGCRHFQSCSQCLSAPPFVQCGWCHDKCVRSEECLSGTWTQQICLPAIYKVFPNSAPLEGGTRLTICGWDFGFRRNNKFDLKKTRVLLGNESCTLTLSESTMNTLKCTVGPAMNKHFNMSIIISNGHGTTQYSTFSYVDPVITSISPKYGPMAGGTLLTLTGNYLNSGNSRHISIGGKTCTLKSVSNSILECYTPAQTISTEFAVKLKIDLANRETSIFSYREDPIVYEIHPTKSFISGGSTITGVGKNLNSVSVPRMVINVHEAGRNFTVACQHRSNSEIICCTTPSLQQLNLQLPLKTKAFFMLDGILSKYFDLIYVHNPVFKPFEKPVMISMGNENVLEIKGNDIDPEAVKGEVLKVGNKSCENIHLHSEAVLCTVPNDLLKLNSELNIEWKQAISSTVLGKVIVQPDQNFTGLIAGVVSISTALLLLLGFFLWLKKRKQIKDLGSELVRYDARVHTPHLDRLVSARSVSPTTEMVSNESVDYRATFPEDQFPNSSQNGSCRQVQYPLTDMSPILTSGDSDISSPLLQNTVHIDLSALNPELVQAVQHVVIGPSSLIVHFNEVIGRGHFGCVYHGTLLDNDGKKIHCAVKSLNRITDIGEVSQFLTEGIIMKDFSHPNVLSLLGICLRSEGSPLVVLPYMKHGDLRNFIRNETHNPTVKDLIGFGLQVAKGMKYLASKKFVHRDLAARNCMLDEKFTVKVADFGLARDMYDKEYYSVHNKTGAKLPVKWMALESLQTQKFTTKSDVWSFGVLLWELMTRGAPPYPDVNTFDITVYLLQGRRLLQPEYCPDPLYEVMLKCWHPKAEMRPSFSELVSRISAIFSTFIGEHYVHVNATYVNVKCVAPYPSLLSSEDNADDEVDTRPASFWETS
# Assay: flow cytometry, MKN45 cells, without HGF
# Procedure: (§1) Cellular binding of the in total 75 humanized anti-c-Met antibodies (originating from the three selected chimeric antibodies) was studied in human c-Met-positive tumor cell lines MKN45, NCI-H596 and PC-3, rhesus c-Met-positive tumor cell line 4 MBr-5, and human c-Met-negative tumor cell line MDA-MB-175-VII. Cells were used around 90% of confluence at the time of an assay, detached with Trypsin-Versene (EDTA) (Lonza) for 5-10 minutes, washed and adjusted to a concentration of 1×10⁶ cells/mL in ice-cold FACS buffer (PBS 1×, 0.1% v/w BSA, 0.02% v/v sodium azide (NaN₃)). Staining was performed in 96-well round-bottomed microtiter plates using ice-cold reagents/solutions at 4° C. to prevent the modulation and internalization of surface antigens. 100,000 cells/well were added to 96-well plates (100 μL/well) and centrifuged at 300×g for 3 minutes. In case of pre-incubation with HGF, the cells were resuspended in 50 ng/mL recombinant human HGF in FACS buffer (50 μL/well) and incubated for 30 minutes at 4° C., followed by two wash steps with 150 μL FACS buffer. Supernatant was discarded and cells were stained for 30 minutes with 50 μL of each antibody. Serial dilutions were made in ice-cold FACS buffer. Cells were washed twice by centrifugation at 300×g for 3 minutes and resuspended in 50 μL 6000-times diluted secondary F(ab′)₂ goat anti-human IgG (Fc fragment specific) antibody APC-conjugated (Jackson ImmunoResearch). Following a 30-minute incubation on ice, cells were washed again 2 times and resuspended in 150 μL ice-cold FACS buffer for FACS analysis. For analysis of the data, the Median Fluorescence Intensity (MFI) values were obtained.
row,Binder,EC50 [µg/mL]
1,B1,0.16
2,B2,0.05
3,B3,0.07
4,B4,0.07
5,B5,0.07
6,B6,0.11
7,B7,0.09
8,B8,0.14

# Target: T2, rhesus c-Met on 4MBr-5 cells (rhesus, UniProt F7H1K4 25-1381, Natural c-Met is cleaved at the furin site (KRKKR/S) into disulphide-linked alpha and beta subunits; given here as one mature polypeptide.)
# T2 construct: also called rhesus c-Met antigen
# T2 sequence (F7H1K4 entry or part of it limits assumed): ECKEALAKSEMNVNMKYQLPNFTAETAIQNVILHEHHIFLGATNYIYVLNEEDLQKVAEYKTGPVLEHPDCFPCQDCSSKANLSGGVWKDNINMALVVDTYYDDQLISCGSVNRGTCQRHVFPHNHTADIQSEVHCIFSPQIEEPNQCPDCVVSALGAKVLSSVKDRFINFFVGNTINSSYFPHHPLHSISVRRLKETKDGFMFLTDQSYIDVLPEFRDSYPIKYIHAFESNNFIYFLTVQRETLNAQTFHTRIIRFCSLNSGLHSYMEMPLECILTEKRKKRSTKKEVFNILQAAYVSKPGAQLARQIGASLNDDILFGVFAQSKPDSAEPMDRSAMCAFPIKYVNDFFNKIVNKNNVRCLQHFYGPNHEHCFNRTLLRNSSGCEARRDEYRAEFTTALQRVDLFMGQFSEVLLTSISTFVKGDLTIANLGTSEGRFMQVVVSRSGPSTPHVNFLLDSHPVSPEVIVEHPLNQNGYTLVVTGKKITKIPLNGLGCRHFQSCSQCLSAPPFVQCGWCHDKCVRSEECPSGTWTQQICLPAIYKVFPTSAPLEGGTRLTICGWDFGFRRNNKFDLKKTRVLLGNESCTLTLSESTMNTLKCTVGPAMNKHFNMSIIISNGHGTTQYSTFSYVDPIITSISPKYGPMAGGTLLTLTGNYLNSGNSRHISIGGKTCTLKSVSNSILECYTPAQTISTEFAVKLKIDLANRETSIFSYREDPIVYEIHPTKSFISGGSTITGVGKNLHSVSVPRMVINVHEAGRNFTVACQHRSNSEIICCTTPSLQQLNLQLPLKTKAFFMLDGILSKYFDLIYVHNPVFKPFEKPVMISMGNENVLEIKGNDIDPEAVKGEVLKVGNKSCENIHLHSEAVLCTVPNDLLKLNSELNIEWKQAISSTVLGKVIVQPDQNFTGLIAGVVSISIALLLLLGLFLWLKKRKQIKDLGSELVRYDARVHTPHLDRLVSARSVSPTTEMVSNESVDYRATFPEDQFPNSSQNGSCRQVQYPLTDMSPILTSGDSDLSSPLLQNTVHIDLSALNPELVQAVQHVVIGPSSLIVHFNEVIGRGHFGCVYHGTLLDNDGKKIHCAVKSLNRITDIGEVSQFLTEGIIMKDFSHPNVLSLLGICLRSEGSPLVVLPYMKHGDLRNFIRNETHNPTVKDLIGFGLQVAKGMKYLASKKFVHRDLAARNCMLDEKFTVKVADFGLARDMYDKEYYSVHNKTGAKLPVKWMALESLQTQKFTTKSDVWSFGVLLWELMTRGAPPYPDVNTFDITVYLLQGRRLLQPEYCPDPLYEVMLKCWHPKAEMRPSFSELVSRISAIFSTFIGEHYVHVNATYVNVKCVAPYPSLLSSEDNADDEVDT
# Assay: flow cytometry, 4MBr-5 cells, without HGF
# Procedure: as §1
row,Binder,EC50 [µg/mL]
1,B1,0.07
2,B2,0.02
3,B3,0.03
4,B4,0.03
5,B5,0.04
6,B6,0.07
7,B7,0.06
8,B8,0.09

# Target: T1, human c-Met (HGFR), full length, on the …
# Assay: flow cytometry, PC-3 cells; EC50 with 50 ng/mL HGF against EC50 without HGF
# Procedure: as §1
row,Binder,Fold shift (HGF) [fold]
1,B1,1.9
2,B2,1.9
3,B3,2.7
4,B4,2.8
5,B5,2.4
6,B6,3.1
7,B7,2.3
8,B8,2.6

# Target: T1, human c-Met (HGFR), full length, on the …
# Assay: flow cytometry, NCI-H596 cells; EC50 with 50 ng/mL HGF against EC50 without HGF
# Procedure: as §1
row,Binder,Fold shift (HGF) [fold]
1,B1,2.5
2,B2,5.5
3,B3,7.5
4,B4,7
5,B5,4
6,B6,3.3
7,B7,4
8,B8,2.8

# Target: T1, human c-Met (HGFR), full length, on the …
# Assay: flow cytometry on MKN45, NCI-H596 and PC-3 cells
# Procedure: as §1, with “14 wild-type chimeric and the 14 HC-41C chimeric” for “in total 75 humanized”, “antibodies” for “antibodies (originating from the three selected chimeric antibodies)”, “HGF (paracrine cell lines only),” for “HGF,”
row,Binder,binding result
1,B9,binds
2,B10,binds
3,B11,binds
4,B12,binds

# Target: T2, rhesus c-Met on 4MBr-5 cells
# Assay: flow cytometry, 4MBr-5 cells; EC50 with 50 ng/mL HGF against EC50 without HGF
# Procedure: as §1
row,Binder,Fold shift (HGF) [fold]
1,B1,1.1
2,B2,1.7
3,B3,1.6
4,B4,1.4
5,B5,0.8
6,B6,1.2
7,B7,1.4
8,B8,1.7

# Target: T1, human c-Met (HGFR), full length, on the …
# Assay: flow cytometry, NCI-H596 cells pre-incubated with 50 ng/mL HGF
# Procedure: as §1
row,Binder,EC50 [µg/mL]
1,B1,0.1
2,B2,0.11
3,B3,0.15
4,B4,0.14
5,B5,0.08
6,B6,0.1
7,B7,0.08
8,B8,0.11

# Target: T1, human c-Met (HGFR), full length, on the …
# Assay: flow cytometry, PC-3 cells pre-incubated with 50 ng/mL HGF
# Procedure: as §1
row,Binder,EC50 [µg/mL]
1,B1,0.15
2,B2,0.06
3,B3,0.08
4,B4,0.09
5,B5,0.07
6,B6,0.09
7,B7,0.09
8,B8,0.13

# Target: T1, human c-Met (HGFR), full length, on the …
# Assay: flow cytometry, NCI-H596 cells, without HGF
# Procedure: as §1
row,Binder,EC50 [µg/mL]
1,B1,0.04
2,B2,0.02
3,B3,0.02
4,B4,0.02
5,B5,0.02
6,B6,0.03
7,B7,0.02
8,B8,0.04

# Target: T1, human c-Met (HGFR), full length, on the …
# Assay: flow cytometry, PC-3 cells, without HGF
# Procedure: as §1
row,Binder,EC50 [µg/mL]
1,B1,0.08
2,B2,0.03
3,B3,0.03
4,B4,0.03
5,B5,0.03
6,B6,0.03
7,B7,0.04
8,B8,0.05

# Target: T2, rhesus c-Met on 4MBr-5 cells
# Assay: flow cytometry, 4MBr-5 cells pre-incubated with 50 ng/mL HGF
# Procedure: as §1
row,Binder,EC50 [µg/mL]
1,B1,0.08
2,B2,0.03
3,B3,0.05
4,B4,0.04
5,B5,0.03
6,B6,0.09
7,B7,0.09
8,B8,0.15
